How the values were obtained:
[1] = target: T1, human FAP (huFAP) expressed on cells (human, UniProt Q12884 1-760); assay: FACS, 293FF cells stably expressing huFAP, IgG at 2.5 ug/ml
T1 construct: also called WI-38 cells
T1 sequence: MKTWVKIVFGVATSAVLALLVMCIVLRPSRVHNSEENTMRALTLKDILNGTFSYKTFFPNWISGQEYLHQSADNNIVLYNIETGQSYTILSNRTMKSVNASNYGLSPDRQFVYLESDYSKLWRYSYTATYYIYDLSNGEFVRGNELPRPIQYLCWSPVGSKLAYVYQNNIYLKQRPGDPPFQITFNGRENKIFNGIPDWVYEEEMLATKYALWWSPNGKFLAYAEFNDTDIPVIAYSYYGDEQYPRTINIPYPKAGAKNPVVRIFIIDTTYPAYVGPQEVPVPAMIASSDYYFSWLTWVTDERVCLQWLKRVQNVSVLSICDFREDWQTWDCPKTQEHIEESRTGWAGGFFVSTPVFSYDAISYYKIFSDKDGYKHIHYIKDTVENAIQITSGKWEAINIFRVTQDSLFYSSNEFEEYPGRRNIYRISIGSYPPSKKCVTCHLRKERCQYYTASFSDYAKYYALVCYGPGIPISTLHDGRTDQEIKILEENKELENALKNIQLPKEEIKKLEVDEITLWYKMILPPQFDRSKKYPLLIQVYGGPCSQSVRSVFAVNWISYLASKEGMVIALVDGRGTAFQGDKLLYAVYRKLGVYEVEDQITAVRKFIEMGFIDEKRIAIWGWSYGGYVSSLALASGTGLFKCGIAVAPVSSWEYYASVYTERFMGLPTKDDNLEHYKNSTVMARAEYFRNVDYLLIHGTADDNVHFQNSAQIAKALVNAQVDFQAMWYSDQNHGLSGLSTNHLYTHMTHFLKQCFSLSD
Method: The binding of all test and control antibodies to the cells was tested at a single concentration of 2.5 ug/ml. Goat-anti-human IgG F(ab)2-PE (Invitrogen, H10104) was used as secondary antibody (1:100 in FACS buffer). Ab0625 was used at 10 ug/ml and its binding was detected using Ab0250 (Becton Dickinson, 550767) (1:100 in FACS buffer). The FACS buffer containing PBS (Gibco, cat. #10010-015), 0.5% BSA (Thermo Scientific, cat. #37525), and 2 mM EDTA (Invitrogen, cat. #15575-020) was kept ice cold throughout the assay.
The target cells were harvested, counted, and centrifuged for 5 min at 300 g at 4 °C. Cells were then resuspended in FACS buffer at a concentration of 1×10⁶ cells/ml and transferred (200,000 cells/well) to a U-bottom 96-well FACS plate (BD, cat. #353910). Cells were then centrifuged for 3 min at 300 g at 4° C. and supernatant was discarded. 50 μl of primary antibody solutions were added to the cells, mixed, and incubated for 30 min at 2-8° C. in the dark. Cells were washed by adding 150 μl FACS buffer and centrifuged for 3 min at 300 g at 4° C. Supernatant was discarded, and cells were washed again by adding 200 μl FACS buffer to the plate. Cells were then centrifuged for 3 min at 300 g at 4° C. and afterwards the supernatant was discarded. 50 μl of secondary antibody solutions were added to the cells, mixed, and incubated for 30 min at 2-8° C. in the dark. […]

[2] = target: T1, human FAP (huFAP) expressed on cells; assay: FACS titration (10 ug/ml to 3.16 ng/ml) on WI-38 cells
Method: The human anti-FAP panel was tested on WI-38 cells (endogenously expressing huFAP) and binding was measured by FACS.
The target cells were harvested, counted, and centrifuged for 5 min at 300 g at 4° C. Cells were then resuspended in FACS buffer at a concentration of 1×10⁶ cells/ml and transferred (200,000 cells/well) to a U-bottom 96-well FACS plate (BD, cat. #353910). Cells were washed by adding 200 μl PBS and centrifuged for 3 min at 300 g at 4 °C. Cells were then centrifuged for 3 min at 300 g at 4° C. and supernatant was discarded. Antibodies were diluted in an 8 steps, semi-log dilution series ranging from 10 ug/ml to 3.16 ng/ml in FACS buffer (50 μ/well), mixed, and incubated for 30 min at 2-8° C. in the dark. A titration of the sibrotuzumab analog was included as positive control and used to normalize data. The negative control TT antibody was included as negative control. Cells were washed by adding 150 μl FACS buffer and centrifuged for 3 min at 300 g at 4° C. Supernatant was discarded, and cells were washed again by adding 200 μl FACS buffer to the plate. Cells were then centrifuged for 3 min at 300 g at 4° C. and afterwards the supernatant was discarded. […] Fluorescence intensity of the cells was then measured on the iQue VBR (Intellicyt).

B1: anti-human FAP bivalent monospecific IgG comprising heavy chain variable region SEQ ID NO: 11 (antibody, V domains shown)
VH: EVQLVESGGGLVQPGGSLRLSCAASGFTFSSYAMIWVRQAPGKGLEWVSAISGSGGYTFNADSVKGRFTMSRDNSKNTLYLQMNSLRAEDTAVYYCAKRDGGYEGGAFDIWGQGTLVTVSS
VL: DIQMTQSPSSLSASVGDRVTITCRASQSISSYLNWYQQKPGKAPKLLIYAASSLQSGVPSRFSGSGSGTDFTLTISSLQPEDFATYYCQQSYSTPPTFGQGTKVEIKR
notes: IgG1 format, common light chain VK1-39/JK1
B1: binds [1].

B2: anti-human FAP bivalent monospecific IgG comprising heavy chain variable region SEQ ID NO: 69 (antibody, V domains shown)
VH: EVQLVETGGGLIQPGGSLRLSCAASGFTVSSNYMSWVRQAPGKGLEWVSVIYSGGSTYYADSVKGRFTISRDNSKNTLYLQMNSLRAEDTAVYYCARGPTDAYPYLDYLWGQGTLVTVSS
VL: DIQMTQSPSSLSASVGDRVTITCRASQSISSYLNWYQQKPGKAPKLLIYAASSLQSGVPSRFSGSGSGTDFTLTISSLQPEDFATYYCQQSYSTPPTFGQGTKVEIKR
notes: IgG1 format, common light chain VK1-39/JK1; also called human/mouse cross-reactive FAP IgG
B2: binds [2].

B3: anti-human FAP bivalent monospecific IgG comprising heavy chain variable region SEQ ID NO: 15 (antibody, V domains shown)
VH: QLQLQESGPGLVKPSETLSLTCTVSGGSISSSSYFWAWIRQPPGKGLEFIGNIYYSGSTYYNPSLKSRVTISVDTSKNQFSLKLSSVTAADTAVYYCARPSYYGSGNYYFAFWGQGTLVTVSS
VL: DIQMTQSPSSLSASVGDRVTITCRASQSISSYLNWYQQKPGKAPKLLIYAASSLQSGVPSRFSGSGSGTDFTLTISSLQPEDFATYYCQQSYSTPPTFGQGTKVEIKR
notes: as for B1
B3: binds [2].

Reference: patent publication US20240218070A1 (MERUS N V, published 2024)
